Data as given in article PMC8444507 (Signal Transduction and Targeted Therapy, 2021).
Values joined by “and” are separate entries in the source; they are usually repeats but may differ in a detail not shown here. Equal values may be shown once.

Target: T1, wild-type human ACE2 peptidase domain (PD) (human, UniProt Q9BYF1 19-615)
T1 construct: also called ACE2/WT; ACE2 WT
Assay: SPR
Settings: both partners purified

T1 sequence (Q9BYF1 19-615): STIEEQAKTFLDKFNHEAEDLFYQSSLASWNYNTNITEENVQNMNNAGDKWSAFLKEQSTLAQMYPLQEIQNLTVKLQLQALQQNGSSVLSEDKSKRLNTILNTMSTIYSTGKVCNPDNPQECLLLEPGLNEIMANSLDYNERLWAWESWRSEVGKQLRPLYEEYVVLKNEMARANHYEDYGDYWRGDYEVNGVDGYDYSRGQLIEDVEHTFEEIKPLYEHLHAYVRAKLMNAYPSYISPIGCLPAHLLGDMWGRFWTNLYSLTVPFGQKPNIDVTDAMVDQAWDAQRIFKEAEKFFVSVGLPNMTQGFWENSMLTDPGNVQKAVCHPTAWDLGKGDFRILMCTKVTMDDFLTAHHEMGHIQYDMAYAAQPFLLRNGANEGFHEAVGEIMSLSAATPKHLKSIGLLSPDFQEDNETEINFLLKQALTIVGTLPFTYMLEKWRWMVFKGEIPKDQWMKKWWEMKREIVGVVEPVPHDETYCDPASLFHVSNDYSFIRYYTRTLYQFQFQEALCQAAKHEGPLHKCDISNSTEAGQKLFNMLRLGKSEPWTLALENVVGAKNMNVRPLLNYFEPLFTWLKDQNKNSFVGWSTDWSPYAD

B1: SARS-CoV spike receptor-binding domain (S-RBD), wild-type (domain or fragment)
chain: not shown
- Kd: 523 nM and 971 nM and 500 nM
